Assay [1] deals with T1, Mouse GUCY2C ECD (his-tagged mouse GUCY2C protein extracellular domain fusion protein) (mouse, UniProt Q3UWA6 20-433).
T1 construct: also called murine GUCY2C-his; murine GUCY2C-His
T1 sequence: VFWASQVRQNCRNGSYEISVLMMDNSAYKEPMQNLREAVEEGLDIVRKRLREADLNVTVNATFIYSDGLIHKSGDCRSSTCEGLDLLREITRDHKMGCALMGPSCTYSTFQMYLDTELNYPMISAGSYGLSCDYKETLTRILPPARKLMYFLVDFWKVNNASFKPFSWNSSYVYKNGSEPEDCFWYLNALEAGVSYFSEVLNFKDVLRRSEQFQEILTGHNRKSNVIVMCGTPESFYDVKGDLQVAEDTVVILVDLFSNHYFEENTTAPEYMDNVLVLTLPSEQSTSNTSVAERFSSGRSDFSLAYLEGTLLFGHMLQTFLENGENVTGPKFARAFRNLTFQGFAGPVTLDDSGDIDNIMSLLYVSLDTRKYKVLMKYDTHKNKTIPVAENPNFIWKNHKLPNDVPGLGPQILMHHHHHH
Description: ELISA, plate coated with mouse GUCY2C-his, OD450. How it is done:
A human GUCY2C-his protein was diluted with PBS to a final concentration of 2 μg/mL and then added to a 96-well ELISA plate at 50 μL/well. The plate was sealed with a plastic film and incubated at 4° C. overnight. The next day, the plate was washed 2 times with PBST, and a blocking buffer [PBS+2% (w/w) BSA] was added for blocking at room temperature for 2 h. The blocking buffer was discarded, and the recombinant antibody and positive and negative control antibody with a starting concentration of 100 nM serially diluted by 3 folds were added at 50 μL/well. After incubation at 37° C. for 1 h, the plate was washed 3 times with PBST. A horseradish peroxidase (HRP)—labeled secondary antibody (purchased from Merck, Cat. No. AP113P) was added for incubation at 37° C. for 1 h, and the plate was washed 5 times with PBST. A TMB substrate was added at 50 μL/well for incubation at room temperature for 10 min, and then a stop solution (1.0 M HCl) was added at 50 μL/well. The OD450 nm values were read by an ELISA plate reader (Multimode Plate Reader, EnSight, purchased from Perkin Elmer).
The monkey GUCY2C-his and murine GUCY2C-his proteins were subjected to ELISA and data analysis according to the method described in Example 4.2. The recombinant antibodies Lab306-huFc, Lab322-huFc, and Lab323-huFc have a relatively good binding activity with the monkey GUCY2C-his protein. […]
Background: In an ELISA, binding on a coated surface is turned into a signal by an enzyme label.

Assay [2] addresses T2, Human GUCY2C ECD (his-tagged human GUCY2C protein extracellular domain fusion protein) (human, UniProt P25092 24-430).
T2 construct: also called human GUCY2C-his; human GUCY2C-His
Description: ELISA, plate coated with human GUCY2C-his, OD450. As for the experimental part: To assay the binding activity of the humanized antibodies to human GUCY2C-his protein, a human GUCY2C-his protein was diluted with PBS to a final concentration of 2 μg/mL and then added to a 96-well ELISA plate at 50 μL/well. The plate was sealed with a plastic film and incubated at 4° C. overnight. The next day, the plate was washed 2 times with PBST, and a blocking buffer [PBS+2% (w/w) BSA] was added for blocking at room temperature for 2 h. The blocking buffer was discarded, and the plate was washed 2 times with PBST. An antibody to be tested or a control antibody diluted in a 1:3 gradient from a starting concentration of 100 nM was added at 50 μL/well. After incubation at 37° C. for 1 h, the plate was washed 3 times with PBST. A horseradish peroxidase (HRP)—labeled secondary antibody (purchased from Merck, Cat. No. AP113P) was added for incubation at 37° C. for 1 h, and the plate was washed 5 times with PBST. A TMB substrate was added at 50 µL/well for incubation at room temperature for 5-10 min, and then a stop solution (1.0 M HCl) was added at 50 μL/well. OD450 nm values were read using an ELISA plate reader (Multimode Plate Reader, EnSight, purchased from Perkin Elmer).

For assay [3], the target named is T3, Cyno GUCY2C ECD (his-tagged cynomolgus monkey GUCY2C protein extracellular domain fusion protein) (cynomolgus monkey, UniProt P25092 24-430 (human entry)).
T3 construct: also called monkey GUCY2C-his; monkey GUCY2C-His
T3 chain: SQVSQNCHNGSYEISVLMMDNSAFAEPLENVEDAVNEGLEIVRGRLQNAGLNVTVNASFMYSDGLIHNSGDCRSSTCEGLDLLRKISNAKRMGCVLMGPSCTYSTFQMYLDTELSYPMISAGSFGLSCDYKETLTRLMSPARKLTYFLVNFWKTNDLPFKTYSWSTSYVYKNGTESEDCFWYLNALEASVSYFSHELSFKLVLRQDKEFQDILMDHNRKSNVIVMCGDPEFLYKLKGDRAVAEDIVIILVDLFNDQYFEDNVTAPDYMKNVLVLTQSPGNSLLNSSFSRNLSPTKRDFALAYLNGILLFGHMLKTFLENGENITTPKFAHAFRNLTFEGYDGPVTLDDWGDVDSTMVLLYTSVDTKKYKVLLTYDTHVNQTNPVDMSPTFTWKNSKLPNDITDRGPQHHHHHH
The assay can be described thus: BLI Gator, antibody on anti-human Fc probe, antigen in solution. As for the experimental part: Next, we measured the affinity of the recombinant antibody by another method, and the specific procedures were as follows: the binding strength of the antibody to the antigen was assayed by acquiring and analyzing the signal change of the reflection interference spectrum on the surface of the optical probe by using thin film interference technology. First, the probe was equilibrated for 300 s with HBS-T+pH 7.4 (0.02% tween) as the mobile phase. 2 μg/mL of the antibody to be tested was captured by an anti-human FC probe (purchased from ProbeLife, PL168-160003) for 240 s, and then antigen proteins with the concentration of 200 nM and diluted two-fold were injected. Kon for 300 s and Koff for 600 s. The association and dissociation processes of the antibody with the antigen protein were recorded, and finally, the chip was regenerated using Glycine pH 2.0 (purchased from GE), wherein the mobile phase was HBS-T+pH 7.4 (0.02% tween), the regeneration time was 5 s, and the assay temperature was 30° C. Finally, according to a 1:1 binding model, the data were analyzed, and the antibody-antigen binding kinetics parameters, including the association rate constant Ka, the dissociation rate constant Kd, the equilibrium dissociation constant KD, and the maximum binding signal Rmax, were fitted. The association rate (Ka), dissociation rate (Kd), and binding affinity (KD) of the recombinant antibodies with the human GUCY2C and monkey GUCY2C proteins are shown in Table 6.
After the finally obtained various humanized antibodies were expressed and purified, the affinities of the humanized antibodies for the human and monkey GUCY2C proteins were separately assayed according to the method in Example 4.6.

T2 sequence (P25092 other isoform, or with tags, fused parts or gaps): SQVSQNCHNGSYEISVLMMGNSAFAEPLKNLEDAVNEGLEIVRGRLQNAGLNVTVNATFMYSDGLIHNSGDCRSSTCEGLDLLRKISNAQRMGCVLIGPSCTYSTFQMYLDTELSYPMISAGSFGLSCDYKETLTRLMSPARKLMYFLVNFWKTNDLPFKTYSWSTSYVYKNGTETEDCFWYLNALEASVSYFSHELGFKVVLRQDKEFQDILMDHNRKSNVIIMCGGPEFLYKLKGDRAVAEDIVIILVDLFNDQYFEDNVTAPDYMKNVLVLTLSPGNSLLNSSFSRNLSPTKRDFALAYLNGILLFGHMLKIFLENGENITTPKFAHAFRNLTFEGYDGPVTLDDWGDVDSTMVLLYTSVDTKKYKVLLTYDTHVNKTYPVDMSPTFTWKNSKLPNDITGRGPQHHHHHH

B1: PF1608-hIgG1 (antibody, V domains shown)
VH: EVQLVESGGGLVQPGGSLRLSCAASGFTFSSYWMHWVRQAPGKGLEWIGEIKPSNELTNVHEKFKDRFTISVDKAKNSAYLQMNSLRAEDTAVYYCTRTITTTEGYWFFDVWGQGTLVTVSS
VL: DIQLTQSPSSLSASVGDRVTITCRASESVDYYGSSLLQWYQQKPGKAPKLLIYAASKLASGVPSRFSGSGSGTDFTLTISSLQPEDFATYYCQQTRKAYTFGQGTKLEIKR
notes: also called PF1608-hlgG1; positive control antibody
Broadly, the EC50 (read off the curve) is the midpoint of the concentration-response curve. The term Kd denotes the constant that tells how readily two partners part at equilibrium. One may read the koff as the rate constant with which the complex falls apart. As a reminder, the kon is the second-order rate constant of association. Regarding B1, in assay [1], the 50% effective concentration (EC50 (read off the curve)) was ~0.05 nM. Besides, the “EC50 (read off the curve)” value in assay [2] was ~0.05 nM. Also, in assay [3], the affinity, expressed as Kd, was 0.256 nM; the off-rate constant (koff) was 0.000138 s⁻¹; the on-rate (kon) was found to be 540000 M⁻¹ s⁻¹.

B2: 5F9-hIgG1 (antibody, V domains shown)
VH: QVQLQQWGAGLLKPSETLSLTCAVFGGSFSGYYWSWIRQPPGKGLEWIGEINHRGNTNDNPSLKSRVTISVDTSKNQFALKLSSVTAADTAVYYCARERGYTYGNFDHWGQGTLVTVSS
VL: EIVMTQSPATLSVSPGERATLSCRASQSVSRNLAWYQQKPGQAPRLLIYGASTRATGIPARFSGSGSGTEFTLTIGSLQSEDFAVYYCQQYKTWPRTFGQGTNVEIKR
notes: also called positive control antibody
B2: in assay [1], the binding result was “no binding (tested: 100 nM)”. For the same molecule, the 50% effective concentration (EC50 (read off the curve)) in assay [2] was ~0.04 nM. For the same molecule, in assay [3], the Kd worked out at 0.998 nM, the koff stood at 0.000486 s⁻¹ and the on-rate constant (kon) was found to be 487000 M⁻¹ s⁻¹.

Source of the values: patent US20250075006A1 (SHANDONG SIMCERE BIOPHARMACEUTICAL, published 2025).
